# In patent CN115433274A (BEIJING KENUO XINCHENG TECH CO LTD, dated 2022):
# B1: 噬菌体展示的纳米抗体2MG6 (VHH)
# VHH: QVQLQESGGGLVQAGGSLRLSCAASGSTYPTAYIAWFRQAPGKEREGVAGIYTVGGSTFYTDSVKGRFTISRDNAKNTVYLLMNSLKPEDTAMYFCAAGRTDTAKLRDPRSFGYWGQGTQVTVSS
# notes: the phage fusion part is not described; also called 克隆2MG6
# B2: 食蟹猴SA重组蛋白 (other)
# chain: DTHKSEVAHRFKDLGEEHFKGLVLVAFSQYLQQCPFEEHVKLVNEVTEFAKTCVADESAENCDKSLHTLFGDKLCTVATLRETYGEMADCCAKQEPERNECFLQHKDDNPNLPPLVRPEVDVMCTAFHDNEATFLKKYLYEVARRHPYFYAPELLFFAARYKAAFAECCQAADKAACLLPKLDELRDEGKASSAKQRLKCASLQKFGDRAFKAWAVARLSQKFPKAEFAEVSKLVTDLTKVHTECCHGDLLECADDRADLAKYMCENQDSISSKLKECCDKPLLEKSHCLAEVENDEMPADLPSLAADYVESKDVCKNYAEAKDVFLGMFLYEYARRHPDYSVMLLLRLAKAYEATLEKCCAAADPHECYAKVFDEFQPLVEEPQNLVKQNCELFEQLGEYKFQNALLVRYTKKVPQVSTPTLVEVSRNLGKVGAKCCKLPEAKRMPCAEDYLSVVLNRLCVLHEKTPVSEKVTKCCTESLVNRRPCFSALELDEAYVPKAFNAETFTFHADMCTLSEKEKQVKKQTALVELVKHKPKATKEQLKGVMDNFAAFVEKCCKADDKEACFAEEGPKFVAASQAALA
# notes: Bought product; also called cyno SA; Cynomolgus serum albumin
# Experiments:
# [1] = target: B2; assay: phage ELISA, phage supernatant on cyno SA-coated plate
# [2] = target: T1, 牛血清白蛋白(BSA) (bovine, UniProt P02769 25-607); assay: phage ELISA, phage supernatant on BSA-coated plate
# T1 construct: also called Bovine serum albumin
# [3] = target: T2, 对照抗体ALB8 (ALB8重组蛋白, VHH-hFc) (human); assay: ELISA, albumin coated at 1 μg/mL, HRP-anti-human Fc
# T2 construct: Control anti-HSA nanobody expressed as fusion with human Fc; also called 对照纳米抗体ALB8
# T2 sequence (chain, as listed by the source limits assumed): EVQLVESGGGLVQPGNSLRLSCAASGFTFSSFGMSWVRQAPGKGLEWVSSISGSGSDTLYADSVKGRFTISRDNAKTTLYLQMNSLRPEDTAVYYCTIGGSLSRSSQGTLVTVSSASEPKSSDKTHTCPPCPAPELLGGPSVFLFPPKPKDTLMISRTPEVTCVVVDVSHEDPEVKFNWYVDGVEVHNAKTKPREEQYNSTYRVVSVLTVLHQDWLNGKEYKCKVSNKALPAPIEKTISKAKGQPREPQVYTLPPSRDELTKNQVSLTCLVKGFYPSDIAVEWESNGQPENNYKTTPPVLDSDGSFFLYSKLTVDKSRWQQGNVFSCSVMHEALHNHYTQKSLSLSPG
binder,measurement,setting,value
B1,binding result,[1],binds
same,binding result,[2],no binding
B2,binding result,[3],binds
